Results taken from patent US20230287118A1 (published 2023).

Columns and labels:
human CD20 [1] = biological target: T1, human CD20 (human, UniProt P11836 1-297); assay: cell-based or functional assay
T1 sequence (looked up): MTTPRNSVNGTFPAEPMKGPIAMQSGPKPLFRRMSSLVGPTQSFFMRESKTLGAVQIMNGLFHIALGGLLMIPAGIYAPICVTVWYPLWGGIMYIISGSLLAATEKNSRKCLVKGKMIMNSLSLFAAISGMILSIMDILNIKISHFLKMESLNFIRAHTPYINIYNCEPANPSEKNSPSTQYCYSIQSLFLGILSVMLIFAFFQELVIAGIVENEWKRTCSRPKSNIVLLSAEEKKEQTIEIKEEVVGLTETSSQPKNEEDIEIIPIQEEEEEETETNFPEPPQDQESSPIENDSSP

human CD20 [2] = biological target: T1, human CD20; assay: cell-based or functional assay; remark: listed apart in the source
human CD20 [3] = biological target: T1, human CD20; assay: cell-based or functional assay; remark: listed apart in the source
human CD20 [4] = biological target: T1, human CD20; assay: cell-based or functional assay; remark: listed apart in the source
human CD3 [5] = biological target: T2, human CD3 (human, UniProt P07766 23-207); assay: cell-based or functional assay
human CD3 [6] = biological target: T2, human CD3; assay: flow cytometry on CD3-expressing Jurkat cells, PE anti-human Fc secondary antibody
Procedure: (§1) The binding of the anti-CD3/anti-CD20 TCB antibody shown as molecule “B” above was tested on human CD20-expressing Diffuse Large-Cell B Cell Lymphoma (DLBCL) cell line (WSU DLCL2, 0.5-1×10⁶ CD20 binding sites) and CD3-expressing immortalized T lymphocyte line (Jurkat). Briefly, cells were harvested, counted, checked for viability and resuspended at 1.5×10⁶ cells/ml in FACS buffer (PBS 0.1% BSA).
(§2) Binding curves and the EC50 values related to binding were calculated using GraphPadPrism5.

human CD20 [7] = biological target: T1, human CD20; assay: flow cytometry on CD20-expressing WSU DLCL2 cells, PE anti-human Fc secondary antibody
Procedure: as §1, §2

human CD20 [8] = biological target: T1, human CD20; assay: flow cytometry, AlexaFluor488-labelled TCB on CD20-expressing B cells among human PBMCs
Procedure: (§3) The crossreactivity of the anti-CD3/anti-CD20 TCB antibody shown as molecule “B” above was evaluated by assessing binding to human and cynomolgus monkey CD20-expressing B cells and CD3-expressing CD4 and CD8 T cells. Briefly, heparinized human and cynomolgus monkey blood from healthy donors was used to isolate PBMCs by density centrifugation. Isolated PBMCs were counted, checked for viability and resuspended at 4×10⁶ cells/ml in FACS buffer (100 μl PBS 0.1% BSA). 100 μl of cell suspension (containing 0.4×10⁶ cells) were plated into 96-well_U-bottom plate and centrifuged (420×g, 4 min). After removal of the supernatants, PBMCs were incubated for 30 min at 4° C. with increasing concentrations of the CD20 TCB-AlexaFlour488 (200 pM-200 nM), washed twice with cold PBS 0.1% BSA, re-incubated for further 30 min at 4° C. with human/cynomolgus cross-reactive antibodies: anti-CD19 (in house, clone 8B8)-AlexaFluor647, anti-CD4 (BD, #552838, clone L200)-PerCPCy5.5 and anti-CD8 (BD, #555367, clone RPA-T8)-PE.

cynomolgus monkey CD20 = biological target: T3, cynomolgus monkey CD20 (cynomolgus monkey, UniProt M4ZHZ6 1-297); assay: flow cytometry, AlexaFluor488-labelled TCB on CD20-expressing B cells among cynomolgus monkey PBMCs
T3 construct: whole, on cells; also called cynomolgus CD20
T3 sequence: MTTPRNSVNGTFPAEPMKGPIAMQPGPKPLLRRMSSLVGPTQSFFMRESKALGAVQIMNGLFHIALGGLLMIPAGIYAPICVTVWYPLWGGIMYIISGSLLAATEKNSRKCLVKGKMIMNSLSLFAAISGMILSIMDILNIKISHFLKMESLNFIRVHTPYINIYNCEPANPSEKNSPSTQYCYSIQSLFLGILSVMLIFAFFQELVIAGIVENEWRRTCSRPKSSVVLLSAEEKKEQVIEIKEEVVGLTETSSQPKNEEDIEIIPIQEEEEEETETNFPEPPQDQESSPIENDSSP
Procedure: as §3

EC50 of tumor cell lysis (LDH release), Z138 cells + human PBMCs, 21-24 h, panel A (human CD20 [1]): 2.18 pM
EC50 of tumor cell lysis (LDH release), Z138 cells + human PBMCs, 21-24 h, panel B (human CD20 [1]): 0.96 pM
EC50 24 h of CD4 T cell activation, Z138 cells (average of 3 donors) (human CD20 [2]): 1.2 pM
EC50 24 h of CD8 T cell activation, Z138 cells (average of 3 donors) (human CD20 [2]): 2.2 pM
EC50 24 h of tumor lysis, Z138 cells (average of 3 donors) (human CD20 [2]): 1.6 pM
EC50 24 h of tumor lysis, Ocly-18 cells (human CD20 [3]): 0.3 pM
EC50 24 h of tumor lysis, SU-DHL-5 cells (human CD20 [3]): 1.2 pM
EC50 24 h of tumor lysis, SU-DHL-8 cells (human CD20 [3]): 0.5 pM
EC50 24 h of tumor lysis, U2932 cells (human CD20 [3]): 0.9 pM
EC50 24 h of B cell depletion in normal human whole blood (human CD20 [4]): 13.2 pM
EC50 of CD3 activation, Jurkat-NFAT reporter cells co-cultured with Z138 cells (luminescence, 6 h) (human CD3 [5]): 29 pM
EC50 (human CD3 [6]): ~12500 pM
EC50 (human CD20 [7]): 980 pM
EC50 (human CD20 [8]): 4800 pM
EC50 (cynomolgus monkey CD20): 3300 pM
B1: anti-CD20/anti-CD3 TCB molecule B: "2+1 IgG CrossFab, inverted" with charge modifications (VH/VL exchange in CD3 binder, charge modification in CD20 binders) (bispecific antibody)
heavy 1: not shown
heavy 2: QVQLVQSGAEVKKPGSSVKVSCKASGYAFSYSWINWVRQAPGQGLEWMGRIFPGDGDTDYNGKFKGRVTITADKSTSTAYMELSSLRSEDTAVYYCARNVFDGYWLVYWGQGTLVTVSSASTKGPSVFPLAPSSKSTSGGTAALGCLVEDYFPEPVTVSWNSGALTSGVHTFPAVLQSSGLYSLSSVVTVPSSSLGTQTYICNVNHKPSNTKVDEKVEPKSCDKTHTCPPCPAPEAAGGPSVFLFPPKPKDTLMISRTPEVTCVVVDVSHEDPEVKFNWYVDGVEVHNAKTKPREEQYNSTYRVVSVLTVLHQDWLNGKEYKCKVSNKALGAPIEKTISKAKGQPREPQVCTLPPSRDELTKNQVSLSCAVKGFYPSDIAVEWESNGQPENNYKTTPPVLDSDGSFFLVSKLTVDKSRWQQGNVFSCSVMHEALHNHYTQKSLSLSP
light 1: DIVMTQTPLSLPVTPGEPASISCRSSKSLLHSNGITYLYWYLQKPGQSPQLLIYQMSNLVSGVPDRFSGSGSGTDFTLKISRVEAEDVGVYYCAQNLELPYTFGGGTKVEIKRTVAAPSVFIFPPSDRKLKSGTASVVCLLNNFYPREAKVQWKVDNALQSGNSQESVTEQDSKDSTYSLSSTLTLSKADYEKHKVYACEVTHQGLSSPVTKSFNRGEC
light 2: EVQLLESGGGLVQPGGSLRLSCAASGFTFSTYAMNWVRQAPGKGLEWVSRIRSKYNNYATYYADSVKGRFTISRDDSKNTLYLQMNSLRAEDTAVYYCVRHGNFGNSYVSWFAYWGQGTLVTVSSASVAAPSVFIFPPSDEQLKSGTASVVCLLNNFYPREAKVQWKVDNALQSGNSQESVTEQDSKDSTYSLSSTLTLSKADYEKHKVYACEVTHQGLSSPVTKSFNRGEC
notes: Bivalent for CD20, monovalent for CD3; also called CD20 TCB; CD20 TCB_2+1_with charges, inverted
